# Measurements as given in the Human Domainome abundance scans (Beltran et al. 2025).
# ± gives the uncertainty stated by the source.
# B1: Membrane-associated guanylate kinase, WW and PDZ domain-containing protein 3, residues 287 to 329; numbered along this chain, Q5TCQ9 (parent)
# chain: MRDETLEPLPKNWEMAYTDTGMIYFIDHNTKTTTWLDPRLCKK
# Variants of: B1
# Assay: abundance fitness (aPCA) (normalised: wild type 0, dead -1); higher = more abundant; growth selection in yeast, the domain comes from the species named
# Settings: Homo sapiens
row,Variant,abundance fitness
1,L9E,-0.566 ± 0.052
2,L9M,-0.106 ± 0.054
3,L9A,-0.691 ± 0.095
4,L9R,-0.639 ± 0.058
5,L9W,-0.492 ± 0.073
6,L9K,-0.683 ± 0.087
7,L9S,-0.621 ± 0.045
8,L9Q,-0.566 ± 0.057
9,L9G,-0.681 ± 0.034
10,L9C,-0.721 ± 0.23
11,L9V,-0.337 ± 0.036
12,E4D,-0.115 ± 0.055
13,E4K,-0.107 ± 0.065
14,E4A,-0.09 ± 0.038
15,E4L,-0.09 ± 0.04
16,E4S,-0.043 ± 0.045
17,E4H,-0.174 ± 0.063
18,E4P,-0.095 ± 0.045
19,E4Q,-0.04 ± 0.035
20,E4C,-0.062 ± 0.038
21,E4M,-0.11 ± 0.043
22,E4R,-0.091 ± 0.03
23,E4F,-0.097 ± 0.068
24,E4G,-0.113 ± 0.03

row,Variant,abundance fitness
1,E4W,-0.515 ± 0.057
2,E4Y,-0.319 ± 0.11
3,L6T,-0.018 ± 0.044
4,L6V,-0.024 ± 0.031
5,L6F,-0.13 ± 0.19
6,L6Q,0.103 ± 0.071
7,L6H,-0.249 ± 0.07
8,L6M,-0.067 ± 0.069
9,L6W,-0.108 ± 0.039
10,L6K,-0.128 ± 0.13
11,L6G,0.001 ± 0.032
12,L6Y,-0.156 ± 0.052
13,L6R,-0.026 ± 0.032
14,L6E,-0.029 ± 0.053
15,L6S,0.034 ± 0.034
16,L6P,-0.068 ± 0.039
17,L6A,0.016 ± 0.036
18,L6I,0.141 ± 0.22
19,L6D,-0.086 ± 0.061
20,R2S,-0.164 ± 0.044
21,R2E,-0.05 ± 0.038
22,R2T,-0.002 ± 0.033
23,R2K,-0.045 ± 0.073
24,R2C,-0.046 ± 0.048

row,Variant,abundance fitness
1,R2N,-0.021 ± 0.046
2,R2W,-0.226 ± 0.038
3,R2A,-0.088 ± 0.039
4,R2I,-0.122 ± 0.055
5,R2V,-0.091 ± 0.033
6,R2M,-0.015 ± 0.077
7,R2L,-0.072 ± 0.054
8,R2G,-0.054 ± 0.043
9,R2F,-0.171 ± 0.049
10,D3R,-0.127 ± 0.032
11,D3Y,-0.367 ± 0.12
12,D3M,-0.188 ± 0.035
13,D3F,-0.161 ± 0.065
14,D3L,-0.175 ± 0.043
15,D3G,-0.065 ± 0.036
16,D3A,-0.089 ± 0.034
17,D3C,-0.164 ± 0.093
18,D3N,-0.148 ± 0.067
19,D3E,-0.039 ± 0.036
20,D3T,-0.12 ± 0.042
21,D3K,-0.046 ± 0.051
22,D3Q,-0.074 ± 0.044
23,D3S,-0.067 ± 0.036
24,D3I,-0.213 ± 0.1

row,Variant,abundance fitness
1,D3W,-0.336 ± 0.039
2,D3P,-0.072 ± 0.053
3,P8M,-0.255 ± 0.056
4,P8K,-0.069 ± 0.041
5,P8W,-0.367 ± 0.042
6,P8S,-0.325 ± 0.11
7,P8Y,-0.395 ± 0.13
8,P8D,-0.087 ± 0.05
9,P8Q,-0.15 ± 0.053
10,P8R,-0.112 ± 0.031
11,P8C,-0.332 ± 0.24
12,P8G,-0.13 ± 0.03
13,P8V,-0.187 ± 0.035
14,P8T,-0.162 ± 0.061
15,P8A,-0.065 ± 0.034
16,P8E,-0.078 ± 0.076
17,P10Q,-0.505 ± 0.048
18,P10E,-0.456 ± 0.057
19,P10C,-0.54 ± 0.11
20,P10F,-0.831 ± 0.071
21,P10D,-0.527 ± 0.13
22,P10H,-0.677 ± 0.087
23,P10A,-0.392 ± 0.038
24,P10S,-0.496 ± 0.037

row,Variant,abundance fitness
1,P10I,-0.854 ± 0.12
2,P10T,-0.462 ± 0.053
3,P10L,-0.613 ± 0.046
4,P10W,-0.837 ± 0.058
5,P10R,-0.685 ± 0.034
6,P10V,-0.816 ± 0.089
7,M1N,-0.213 ± 0.13
8,M1S,-0.064 ± 0.096
9,M1Q,-0.253 ± 0.12
10,M1I,-0.152 ± 0.27
11,M1E,0.001 ± 0.038
12,M1V,-0.089 ± 0.038
13,M1Y,-0.1 ± 0.11
14,M1L,-0.074 ± 0.042
15,M1R,-0.056 ± 0.035
16,M1T,-0.06 ± 0.039
17,M1D,-0.026 ± 0.061
18,M1K,0.025 ± 0.047
19,M1G,-0.057 ± 0.032
20,E7K,-0.101 ± 0.045
21,E7L,-0.115 ± 0.035
22,E7D,-0.113 ± 0.078
23,E7N,-0.238 ± 0.069
24,E7Q,-0.04 ± 0.041

row,Variant,abundance fitness
1,E7V,-0.09 ± 0.04
2,E7I,-0.218 ± 0.054
3,E7A,-0.076 ± 0.038
4,E7S,-0.049 ± 0.044
5,E7R,-0.084 ± 0.033
6,E7W,-0.24 ± 0.044
7,E7C,-0.324 ± 0.067
8,E7F,-0.327 ± 0.045
9,E7G,0.013 ± 0.032
10,E7M,-0.145 ± 0.038
11,E7P,0.014 ± 0.049
12,W13C,-0.636 ± 0.063
13,W13F,-0.221 ± 0.17
14,W13G,-0.696 ± 0.033
15,W13E,-0.683 ± 0.045
16,W13P,-0.715 ± 0.073
17,W13L,-0.635 ± 0.046
18,W13I,-0.431 ± 0.059
19,W13A,-0.668 ± 0.036
20,W13M,-0.398 ± 0.041
21,W13D,-0.773 ± 0.096
22,W13K,-0.67 ± 0.064
23,K11H,-0.08 ± 0.037
24,K11Q,-0.041 ± 0.044

row,Variant,abundance fitness
1,K11I,-0.271 ± 0.069
2,K11A,-0.033 ± 0.039
3,K11S,-0.068 ± 0.034
4,K11V,-0.109 ± 0.037
5,K11R,-0.049 ± 0.03
6,K11F,-0.21 ± 0.11
7,K11T,-0.068 ± 0.043
8,K11M,-0.161 ± 0.045
9,K11C,-0.137 ± 0.039
10,K11P,0.007 ± 0.049
11,K11D,-0.092 ± 0.086
12,K11N,-0.118 ± 0.093
13,K11E,0.024 ± 0.033
14,K11L,-0.08 ± 0.038
15,N12Q,-0.237 ± 0.046
16,N12S,-0.213 ± 0.038
17,N12L,-0.247 ± 0.035
18,N12E,-0.22 ± 0.049
19,N12F,-0.198 ± 0.049
20,N12I,-0.96 ± 0.11
21,N12R,-0.215 ± 0.033
22,N12M,-0.229 ± 0.06
23,N12W,-0.412 ± 0.045
